Substitutions are numbered along the chain they refer to.
Legend:
[1] = target: T1, human MICA*008 C273S alpha 3 domain, untagged (crystallography) (human, UniProt Q29983 204-297); experiment: complex purified by size exclusion, X-ray structure
T1 construct: C273S removes the unpaired cysteine; made as the wild-type alpha 3 domain; also called MICA*008 C273S α3 domain
T1 chain: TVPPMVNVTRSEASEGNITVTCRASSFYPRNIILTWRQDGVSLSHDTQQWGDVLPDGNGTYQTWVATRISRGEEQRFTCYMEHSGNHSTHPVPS

[2] = target: T2, MICB005.His (human MICB*005 alpha 3 domain, His tagged) (human); experiment: ELISA, coated antigen
T2 construct: also called huMICB*005 alpha 3-his
T2 chain: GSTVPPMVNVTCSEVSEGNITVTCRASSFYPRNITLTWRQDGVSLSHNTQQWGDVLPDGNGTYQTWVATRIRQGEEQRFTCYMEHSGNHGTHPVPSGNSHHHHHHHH

[3] = target: T3, MICA.008.a3.R202-S297.R202N mIgG2a.Glyco11 (human; mouse, UniProt Q29983 203-297, engineered N-linked glycosylation site R202N); experiment: ELISA, coated variant;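 further: ELISA with plates coated at 2 ug/ml with MICA*008 alpha 3 glycosylation variants as murine IgG2a Fc fusions, antibody binding detected by HRP anti-human IgG Fc and TMB absorbance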
T3 construct: not shown: murine IgG2a Fc
T3 chain: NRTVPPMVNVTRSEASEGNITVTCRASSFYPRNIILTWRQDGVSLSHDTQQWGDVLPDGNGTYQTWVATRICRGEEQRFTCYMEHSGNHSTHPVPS

[4] = target: T4, MICA.008.a3.T204-S297.E215N.mIgG2a.Glyco12 (human; mouse, UniProt Q29983 204-297, engineered N-linked glycosylation site E215N); experiment: ELISA, coated variant;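 further: ELISA with plates coated at 2 ug/ml with MICA*008 alpha 3 glycosylation variants as murine IgG2a Fc fusions, antibody binding detected by HRP anti-human IgG Fc and TMB absorbance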
T4 construct: not shown: murine IgG2a Fc
T4 chain: T1 chain with E12N, S70C

[5] = target: T5, MICA.008.a3.T204-S297.I236T.mIgG2a.Glyco13 (human; mouse, UniProt Q29983 204-297, engineered N-linked glycosylation site created by I236T); experiment: ELISA, coated variant;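 further: ELISA with plates coated at 2 ug/ml with MICA*008 alpha 3 glycosylation variants as murine IgG2a Fc fusions, antibody binding detected by HRP anti-human IgG Fc and TMB absorbance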
T5 construct: not shown: murine IgG2a Fc
T5 chain: T1 chain with I33T, S70C

[6] = target: T6, MICA.008.a3.T204-S297.G243N.mIgG2a.Glyco14 (human; mouse, UniProt Q29983 204-297, engineered N-linked glycosylation site G243N); experiment: ELISA, coated variant;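 further: ELISA with plates coated at 2 ug/ml with MICA*008 alpha 3 glycosylation variants as murine IgG2a Fc fusions, antibody binding detected by HRP anti-human IgG Fc and TMB absorbance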
T6 construct: not shown: murine IgG2a Fc
T6 chain: T1 chain with G40N, S70C

[7] = target: T7, MICA.008.a3.T204-S297.R279N.mIgG2a.Glyco16 (human; mouse, UniProt Q29983 204-297, engineered N-linked glycosylation site R279N); experiment: ELISA, coated variant
T7 construct: not shown: murine IgG2a Fc
T7 chain: T1 chain with S70C, R76N

[8] = target: T8, MICA.008.a3.T204-S297.C-terminal insert of N298.G299.S300.mIgG2a.Glyco17 (human; mouse, UniProt Q29983 204-297, engineered N-linked glycosylation site at inserted N298); experiment: ELISA, coated variant
T8 construct: not shown: murine IgG2a Fc
T8 chain: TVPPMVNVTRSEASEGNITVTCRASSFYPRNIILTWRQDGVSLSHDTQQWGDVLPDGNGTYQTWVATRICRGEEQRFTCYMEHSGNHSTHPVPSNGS

[9] = target: T9, MICA008.His (human MICA*008 alpha 3 domain, His tagged) (human); experiment: SPR, antibody captured;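 further: SPR with antibody held by surface-bound anti-Fc while His-tagged alpha three domains flow over, Kd derived by fitting a one-to-one binding model to sensograms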
T9 construct: Also used for FPOP (expressed in CHO); also called huMICA*008 alpha 3-his; MICA*008 a3
T9 chain: T2 chain with C12R, V15A, T35I, N48D, R72C, Q73R, G90S

[10] = target: T10, MICA002.His (human MICA*002 alpha 3 domain, His tagged) (human); experiment: SPR, antibody captured;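 further: SPR with antibody held by surface-bound anti-Fc while His-tagged alpha three domains flow over, Kd derived by fitting a one-to-one binding model to sensograms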
T10 construct: also called huMICA*002 alpha 3-his
T10 chain: T2 chain with C12R, V15A, S28G, R32W, T37S, N48D, R72C, G90S

[11] = target: T11, MICA004.His (human MICA*004 alpha 3 domain, His tagged) (human); experiment: SPR, antibody captured;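 further: SPR with antibody held by surface-bound anti-Fc while His-tagged alpha three domains flow over, Kd derived by fitting a one-to-one binding model to sensograms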
T11 construct: also called huMICA*004 alpha 3-his
T11 chain: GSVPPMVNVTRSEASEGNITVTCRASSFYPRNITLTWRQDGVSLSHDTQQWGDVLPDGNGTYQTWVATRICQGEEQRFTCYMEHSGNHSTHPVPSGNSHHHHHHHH

[12] = target: T12, MICA*008 on MEL-JUSO cells (human, UniProt Q29983 24-317); experiment: cell-based or functional assay
T12 chain: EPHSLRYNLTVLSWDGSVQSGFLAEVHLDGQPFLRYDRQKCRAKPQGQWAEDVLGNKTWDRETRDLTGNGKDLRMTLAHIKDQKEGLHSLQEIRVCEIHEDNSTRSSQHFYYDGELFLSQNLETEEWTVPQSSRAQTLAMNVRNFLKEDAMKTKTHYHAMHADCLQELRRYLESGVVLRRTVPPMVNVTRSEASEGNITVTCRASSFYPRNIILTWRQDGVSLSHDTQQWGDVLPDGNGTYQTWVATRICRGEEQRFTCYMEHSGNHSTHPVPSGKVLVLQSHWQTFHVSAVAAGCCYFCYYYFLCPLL

[13] = target: MICA*004 on HCC1534 cells (human, UniProt Q29983 24-383); experiment: cell-based or functional assay
[14] = target: T13, MICA*008 on MEL-JUSO cells (human, UniProt Q29983 24-317); experiment: cell-based or functional assay
T13 chain: T12 chain

[15] = target: T14, MICA*004 on HCC1534 cells (human, UniProt Q29983 24-383); experiment: cell-based or functional assay; remark: listed apart in the source
[16] = target: MICB*005 on HCC1534 cells (human); experiment: cell-based or functional assay
MICA*002 on PANC-1 cells = MICA*002 on PANC-1 cells (human, UniProt Q29983 24-383); experiment: cell-based or functional assay
[17] = target: T13, MICA*008 on MEL-JUSO cells; experiment: cell-based or functional assay
[18] = target: T14, MICA*004 on HCC1534 cells; experiment: cell-based or functional assay; remark: listed apart in the source
[19] = target: MICB*005 on HCC1534 cells (human); experiment: cell-based or functional assay; remark: listed apart in the source
huMICA*002 alpha 3-his [20] = target: T15, huMICA*002 alpha 3-his (human); experiment: SPR, Biacore 8K, antibody on Protein A chip
T15 construct: whole construct entry: GS, alpha 3 domain, GNS, His8; also called MICA002.His; MICA*002 alpha3 construct
T15 chain: T2 chain with C12R, V15A, S28G, R32W, T37S, N48D, R72C, G90S

huMICA*004 alpha 3-his [21] = target: T16, huMICA*004 alpha 3-his (human); experiment: SPR, Biacore 8K, antibody on Protein A chip
T16 construct: whole construct entry: GS, alpha 3 domain, GNS, His8; also called MICA004.His; MICA*004 alpha3 construct
T16 chain: T11 chain

huMICA*008 alpha 3-his [22] = target: T17, huMICA*008 alpha 3-his (human); experiment: SPR, Biacore 8K, antibody on Protein A chip
T17 construct: whole construct entry: GS, alpha 3 domain (Thr204-Ser297), GNS, His8; also the construct of the FPOP experiment; also called MICA008.His; MICA*008 alpha3 construct
T17 chain: T2 chain with C12R, V15A, T35I, N48D, R72C, Q73R, G90S

huMICB*005 alpha 3-his [23] = target: T18, huMICB*005 alpha 3-his (human); experiment: SPR, Biacore 8K, antibody on Protein A chip
T18 construct: whole construct entry: GS, alpha 3 domain, GNS, His8; also called MICB005.His; MICB*005 alpha3 construct
T18 chain: T2 chain

huMICA*002 alpha 3-his [24] = target: T15, huMICA*002 alpha 3-his; experiment: 'Affinity (nM)' row of Table 17; method not stated
huMICA*004 alpha 3-his [25] = target: T16, huMICA*004 alpha 3-his; experiment: 'Affinity (nM)' row of Table 17; method not stated
huMICB*005 alpha 3-his [26] = target: T18, huMICB*005 alpha 3-his; experiment: 'Affinity (nM)' row of Table 17; method not stated
huMICA*008 alpha 3-his [27] = target: T17, huMICA*008 alpha 3-his; experiment: 'Affinity (nM)' row of Table 17; method not stated; MICA*008 allele (column of the MEL-JUSO shedding assay)
[28] = target: T19, human MICA*008 alpha 3 domain, untagged (crystallography) (human, UniProt Q29983 204-297); experiment: complex purified by size exclusion, X-ray structure
T19 construct: Made in T. ni cells with EndoH and kifunensine; N-terminal His6 tag removed with thrombin; also called MICA*008 α3 domain
T19 chain: T1 chain with S70C

B1: 6E1.1.12 Fab (Fab, V domains shown)
VH: QGQMQQSGAELVKPGASVKLSCKTSGFTFSDNYISWLKQKPGQSLEWIAWIYAGTGGSSYNQKFRDKAQLTVDTSSRTAYMQLSSLTTEDSAIYYCARHDYYGTSGAWFAYWGRGTLVTVSA
VL: DVLMTQTPLSLPVSLGDQASISCRSSQHIVHSNENTYLEWYLQKPGQSPKLLIYKVSNRFSGVPDRFSGSGSGTDFTLKISRVEAEDLGVYYCFQGSHVPWTFGGGTKVEIK
notes: Expressed in E. coli; the fraction with glutamine (not pyroglutamate) at the heavy chain N-terminus was crystallised; also called 6E1 Fab; not shown: human IgG1 CH1 constant domain; human kappa CL constant domain
B1: binds [1].

B2: 6E12.5 (antibody, V domains shown)
VH: EVQLVESGGGLVKPGGSLKLSCAASGFTFSDYYMYWVRQTPEKRLEWVATISDGITYTYYSDSVRGRFTISRDNAENTLYLQMSSLKSEDTAMYYCSKGGGSTARGALDFWGQGTSVTVSS
VL: DIQMNQSPSSLSASLGDTITITCHASQNIHVWLSWYQQKPGNIPKLLIYGASHLHTGVPSRFSGRGSGTGFTLTISSLQPEDIATYYCLQGQSYPLTFGSGTKVEIK
notes: Mouse hybridoma antibody; constant regions differ by assay
B2: binds [2]; binds [3]; binds [4]. B2: binds [5]; binds [6]; binds [7]. For the same binder, the binding result [8] was “binds”, the Kd [9] was 15.1 nM and the Kd [10] was 4.5 nM. The Kd [11] was 3 nM, the “% max inhibition of shedding” value [12] was 28% and the “EC50 of shedding inhibition” value [12] was 0.074 µg/mL. For the same binder, the “% max inhibition of shedding” value [13] was 37% and the “EC50 of shedding inhibition” value [13] was 0.329 µg/mL.

B3: 1D5 (antibody, V domains shown)
VH: EIQLQQSGPELVKPGASVKVSCKASGYAFTSQNIYWVKQSHGKSLEWIGYIEPYNVVPMYNPKFKGKATLTVDKSSSSAYIHLNSLTSEDSAIYYCARSGSSNFDYWGQGTTLTVSS
VL: EIILTQSPTTMAASPGEKITITCSASSSISSHYLHWYQQKSGFSPKLLIYRTSNLASGVPARFSGSGSGTSYSLTIGTMEAEDVATYYCQQGSSLPLTFGAGTKVEIK
notes: mouse variable domains; also called anti-MIC 1D5
B3 was tested, and the “IC50 (mg/mL), cell shedding assay” value [14] was 0.00823 mg/mL, the “Max inhibition, cell shedding assay” value [14] was 81% and the “IC50 (mg/mL), cell shedding assay” value [15] was 0.0247 mg/mL. The “Max inhibition, cell shedding assay” value [15] was 70%, the “IC50 (mg/mL), cell shedding assay” value [16] was 0.0293 mg/mL and the “Max inhibition, cell shedding assay” value [16] was 52%. For the same binder, the “IC50 (mg/mL), cell shedding assay” value (MICA*002 on PANC-1 cells) was 0.0291 mg/mL, the “Max inhibition, cell shedding assay” value (MICA*002 on PANC-1 cells) was 53% and the “% Inhibition” value [17] was 69%. The “% Inhibition” value [18] was 52%, the “% Inhibition” value [19] was 49% and the Kd (huMICA*002 alpha 3-his [20]) was 0.83 nM. The Kd (huMICA*004 alpha 3-his [21]) was 0.63 nM, the Kd (huMICA*008 alpha 3-his [22]) was 0.61 nM and the Kd (huMICB*005 alpha 3-his [23]) was 0.95 nM. For the same binder, the Kd (huMICA*002 alpha 3-his [24]) was 0.82 nM, the Kd (huMICA*004 alpha 3-his [25]) was 0.56 nM and the Kd (huMICB*005 alpha 3-his [26]) was 2.28 nM. It also gave a Kd (huMICA*008 alpha 3-his [27]) of 0.54 nM.

B4: 13A9 Fab (Fab, V domains shown)
VH: QVQLQQSGAELVRPGTSVKVSCKASGYAFTNYLIEWVKQRPGQGLEWIGAINPGSGATNYNEKFKDKARLTADKSSNTAYLQFSSLTSDDSAVYFCARFLGNYFDNWGQGATLTVSS
VL: DIQMTQSPASLSASVGETVTITCRASGNIHSYLAWYQQKQGKSPQLLVYYAETLADGVPSRFSGRGSGTQYSLKINSLQPEDFGSYFCQQFWTTPYTFGGGTKVEIK
notes: Expressed in E. coli as chimera of murine variable and human constant domains; not shown: human IgG1 CH1 constant domain; human kappa CL constant domain
B4: binds [28].
